Assay results: the supplement of paper PMC10567573

B1: ZBED1 (parent)
chain: EQVFSLGDGVSGGFFGIRDSSFL

Variants of: B1
Assay: protein stability index of a GFP-peptide fusion (GPS, HEK-293T) (PSI 1-6); higher = more stable
Details: c terminus: native
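Also: lentivirally expressed fusions sorted by FACS into six bins by GFP to DsRed ratio, PSI derived from sequencing read proportions per bin multiplied by bin number.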

Protein stability index of substitutions, site by site:
L6: F 3.22; K 3.86; P 3.96; R 4.26; M 3.2; W 3.01; T 3.27; Y 3.42; Q 3.5; D 3.73; E 4.69; C 3.76; G 4.31; H 3.97; I 3.14; S 4.12; A 3.92; V 3.08; N 3.4
D8: G 3.24; Y 2.01; W 1.91; T 2.91; N 2.88; V 1.57; C 2.07; L 1.99; Q 2.73; R 2.61; E 3.04; S 3.22; P 2.73; F 1.61; H 2.73; M 1.47; A 2.7; I 1.41; K 2.69
F4: R 4.16; Y 3.47; W 3.08; S 4.29; V 3.85; Q 4.12; T 3.75
G12: E 4.06; D 4.06; C 2.49; W 1.72; Q 3.52; R 2.92; Y 2.05; M 2.88; A 3.41; K 3.52; F 2.01; L 2.3; P 3.5; S 3.55; T 3.28; I 1.42; N 3.6; H 3.01; V 2.45
G7: Y 2.34; V 2.19; I 1.9; C 2.61; F 1.99; H 3.34; K 3.16; E 3.84; R 2.94; S 2.94; Q 3.46; N 3.28; D 4.29; P 3.51; L 2.18; M 2.52; W 1.7; T 3.23; A 2.98
G9: N 3.46; W 1.51; P 3.29; H 3.48; E 3.25; R 2.86; M 2.9; L 2.01; A 3.15; V 3.09; S 3.27; F 2.55; Q 3.16; I 2.47; Y 2.51; D 4; K 2.99; C 2.32; T 3.1
S5: K 3.31; R 3.29; W 1.83; E 3.81; P 3.2; L 2.24; F 1.75; M 2.67; Q 3.34; T 3.51; G 3.27; V 2.44; A 2.98; H 3.36; Y 2.63; C 2.6; D 3.74; I 2.16; N 3.96
V10: C 3.35; S 4.03; Q 3.92; M 2.57; F 2.75; G 3.89; E 3.62; K 3.6; R 4.32; P 3.86; A 3.87; N 3.8; H 3.55; W 2.61; Y 3.38; I 2.92; D 3.78; T 3.78; L 3
S11: N 3.63; Y 2.17; R 2.89; L 3.09; P 2.76; M 2.81; A 3.73; V 2.9; C 2.48; F 2.35; K 3.11; G 3.26; T 3.18; W 2.39; H 3.15; Q 3.05; E 4.02; I 2; D 4.01
G13: I 1.99; K 3.08; H 3.41; F 1.98; D 3.73; A 3.28; E 4.08; C 3.08
